Measurements published in publication PMC7861550.

B1: unnamed (parent)
chain: MDIDPYKEFGATVELLSFLPSDFFPSVRDLLDTASALYREALESPEHCSPHHTALRQAILCWGELMTLATWVGVNLEDPASRDLVVSYVNTNMGLKFRQLLWFHISCLTFGRETVIEYLVSFGVWIRTPPAYRPPNAPILSTLPETTVVRRRGRSPRRRTPSPRRRRSQSPRRRRSQSRESQC

Variants of: B1
Assay: capsid assembly (Ca assem)
Details: with partner chain of the complex shown

Question: chain 1 L143A was tested. Which ratio to parent did it give?
Answer: 1.05

Question: Which ratio to parent does the source give for chain 1 L143I here?
Answer: 0.97

Question: For chain 1 S141A, which ratio to parent is on record?
Answer: 1.03

Question: With chain 1 S141D as the variant, how does the ratio to parent read?
Answer: 1.11

Question: For chain 1 S141R, which ratio to parent is on record?
Answer: 1.16

Question: How did the ratio to parent turn out when chain 1 L140A was run?
Answer: 1.32

Question: chain 1 T146A T147A was tested. Which ratio to parent did it give?
Answer: 1.08

Question: How did the ratio to parent turn out when chain 1 E145D was run?
Answer: 1.05

Question: With chain 1 S141T V148I V149I as the variant, how does the ratio to parent read?
Answer: 0.98

Question: Which ratio to parent does the source give for chain 1 T146D T147D here?
Answer: 1.06
